From patent US20150087577A1 (POLYPHOR, published 2015)
Bridges are numbered along the chain shown (N, C = ends). Primed or numbered codes have the meaning given here. [ ]: non-standard residue; d: D form. 2Nal = N[C@@H](Cc1ccc2ccccc2c1)C(=O)O; Cit = NC(=O)NCCC[C@H](N)C(=O)O; Dab = NCC[C@H](N)C(=O)O; Pip′ = not defined here

B1: Example 152 (peptide)
peptide: cyclo(YR[Cit][Dab]RG[dP]RRWEY[Cit]K[dP]P)
modifications: lactam 4-11
SMILES: N=C(N)NCCC[C@@H]1NC(=O)[C@@H]2CCNC(=O)CC[C@H](NC(=O)[C@H](Cc3c[nH]c4ccccc34)NC(=O)[C@H](CCCNC(=N)N)NC(=O)[C@H](CCCNC(=N)N)NC(=O)[C@H]3CCCN3C(=O)CNC1=O)C(=O)N[C@@H](Cc1ccc(O)cc1)C(=O)N[C@@H](CCCNC(N)=O)C(=O)N[C@@H](CCCCN)C(=O)N1CCC[C@@H]1C(=O)N1CCC[C@H]1C(=O)N[C@@H](Cc1ccc(O)cc1)C(=O)N[C@@H](CCCNC(=N)N)C(=O)N[C@@H](CCCNC(N)=O)C(=O)N2
B2: Example 153 (peptide)
peptide: cyclo(YR[Cit]ERG[dP]RRW[Dab]Y[Cit]K[dP]P)
modifications: lactam 4-11
SMILES: N=C(N)NCCC[C@@H]1NC(=O)[C@@H]2CCC(=O)NCC[C@H](NC(=O)[C@H](Cc3c[nH]c4ccccc34)NC(=O)[C@H](CCCNC(=N)N)NC(=O)[C@H](CCCNC(=N)N)NC(=O)[C@H]3CCCN3C(=O)CNC1=O)C(=O)N[C@@H](Cc1ccc(O)cc1)C(=O)N[C@@H](CCCNC(N)=O)C(=O)N[C@@H](CCCCN)C(=O)N1CCC[C@@H]1C(=O)N1CCC[C@H]1C(=O)N[C@@H](Cc1ccc(O)cc1)C(=O)N[C@@H](CCCNC(=N)N)C(=O)N[C@@H](CCCNC(N)=O)C(=O)N2
B3: Example 151 (peptide)
peptide: cyclo(YR[Cit]SRG[dP]RRWNY[Cit]K[dP]P)
SMILES: N=C(N)NCCC[C@@H]1NC(=O)[C@H](CO)NC(=O)[C@H](CCCNC(N)=O)NC(=O)[C@H](CCCNC(=N)N)NC(=O)[C@H](Cc2ccc(O)cc2)NC(=O)[C@@H]2CCCN2C(=O)[C@H]2CCCN2C(=O)[C@H](CCCCN)NC(=O)[C@H](CCCNC(N)=O)NC(=O)[C@H](Cc2ccc(O)cc2)NC(=O)[C@H](CC(N)=O)NC(=O)[C@H](Cc2c[nH]c3ccccc23)NC(=O)[C@H](CCCNC(=N)N)NC(=O)[C@H](CCCNC(=N)N)NC(=O)[C@H]2CCCN2C(=O)CNC1=O
B4: Example 53 (peptide)
peptide: cyclo(YR[Cit]CRVGRR[2Nal]CY[Cit]K[dP]P)
modifications: disulfide 4-11
SMILES: CC(C)[C@@H]1NC(=O)[C@H](CCCNC(=N)N)NC(=O)[C@@H]2CSSC[C@H](NC(=O)[C@H](Cc3ccc4ccccc4c3)NC(=O)[C@H](CCCNC(=N)N)NC(=O)[C@H](CCCNC(=N)N)NC(=O)CNC1=O)C(=O)N[C@@H](Cc1ccc(O)cc1)C(=O)N[C@@H](CCCNC(N)=O)C(=O)N[C@@H](CCCCN)C(=O)N1CCC[C@@H]1C(=O)N1CCC[C@H]1C(=O)N[C@@H](Cc1ccc(O)cc1)C(=O)N[C@@H](CCCNC(=N)N)C(=O)N[C@@H](CCCNC(N)=O)C(=O)N2
B5: Example 38 (peptide)
peptide: cyclo(YR[Cit]FRG[dP]RR[2Nal]FY[Cit]K[dP]P)
SMILES: N=C(N)NCCC[C@@H]1NC(=O)[C@H](Cc2ccccc2)NC(=O)[C@H](CCCNC(N)=O)NC(=O)[C@H](CCCNC(=N)N)NC(=O)[C@H](Cc2ccc(O)cc2)NC(=O)[C@@H]2CCCN2C(=O)[C@H]2CCCN2C(=O)[C@H](CCCCN)NC(=O)[C@H](CCCNC(N)=O)NC(=O)[C@H](Cc2ccc(O)cc2)NC(=O)[C@H](Cc2ccccc2)NC(=O)[C@H](Cc2ccc3ccccc3c2)NC(=O)[C@H](CCCNC(=N)N)NC(=O)[C@H](CCCNC(=N)N)NC(=O)[C@H]2CCCN2C(=O)CNC1=O
B6: Example 31 (peptide)
peptide: cyclo(YR[Cit]VR[Cit]PRR[2Nal]FY[Cit]K[dP]P)
SMILES: CC(C)[C@@H]1NC(=O)[C@H](CCCNC(N)=O)NC(=O)[C@H](CCCNC(=N)N)NC(=O)[C@H](Cc2ccc(O)cc2)NC(=O)[C@@H]2CCCN2C(=O)[C@H]2CCCN2C(=O)[C@H](CCCCN)NC(=O)[C@H](CCCNC(N)=O)NC(=O)[C@H](Cc2ccc(O)cc2)NC(=O)[C@H](Cc2ccccc2)NC(=O)[C@H](Cc2ccc3ccccc3c2)NC(=O)[C@H](CCCNC(=N)N)NC(=O)[C@H](CCCNC(=N)N)NC(=O)[C@@H]2CCCN2C(=O)[C@H](CCCNC(N)=O)NC(=O)[C@H](CCCNC(=N)N)NC1=O
B7: Example 32 (peptide)
peptide: cyclo(YR[Cit]VRV[dP]RR[2Nal]FY[Cit]K[dP]P)
SMILES: CC(C)[C@@H]1NC(=O)[C@H](CCCNC(N)=O)NC(=O)[C@H](CCCNC(=N)N)NC(=O)[C@H](Cc2ccc(O)cc2)NC(=O)[C@@H]2CCCN2C(=O)[C@H]2CCCN2C(=O)[C@H](CCCCN)NC(=O)[C@H](CCCNC(N)=O)NC(=O)[C@H](Cc2ccc(O)cc2)NC(=O)[C@H](Cc2ccccc2)NC(=O)[C@H](Cc2ccc3ccccc3c2)NC(=O)[C@H](CCCNC(=N)N)NC(=O)[C@H](CCCNC(=N)N)NC(=O)[C@H]2CCCN2C(=O)[C@H](C(C)C)NC(=O)[C@H](CCCNC(=N)N)NC1=O
B8: Example 54 (peptide)
peptide: cyclo(YR[Cit]CRG[dP]YR[2Nal]CYQK[dP]P)
modifications: disulfide 4-11
SMILES: N=C(N)NCCC[C@@H]1NC(=O)[C@@H]2CSSC[C@H](NC(=O)[C@H](Cc3ccc4ccccc4c3)NC(=O)[C@H](CCCNC(=N)N)NC(=O)[C@H](Cc3ccc(O)cc3)NC(=O)[C@H]3CCCN3C(=O)CNC1=O)C(=O)N[C@@H](Cc1ccc(O)cc1)C(=O)N[C@@H](CCC(N)=O)C(=O)N[C@@H](CCCCN)C(=O)N1CCC[C@@H]1C(=O)N1CCC[C@H]1C(=O)N[C@@H](Cc1ccc(O)cc1)C(=O)N[C@@H](CCCNC(=N)N)C(=O)N[C@@H](CCCNC(N)=O)C(=O)N2
B9: Example 149 (peptide)
peptide: cyclo(YR[Cit]CRG[dP]RRYCYQK[dQ]P)
modifications: disulfide 4-11
SMILES: N=C(N)NCCC[C@@H]1NC(=O)[C@@H]2CSSC[C@H](NC(=O)[C@H](Cc3ccc(O)cc3)NC(=O)[C@H](CCCNC(=N)N)NC(=O)[C@H](CCCNC(=N)N)NC(=O)[C@H]3CCCN3C(=O)CNC1=O)C(=O)N[C@@H](Cc1ccc(O)cc1)C(=O)N[C@@H](CCC(N)=O)C(=O)N[C@@H](CCCCN)C(=O)N[C@H](CCC(N)=O)C(=O)N1CCC[C@H]1C(=O)N[C@@H](Cc1ccc(O)cc1)C(=O)N[C@@H](CCCNC(=N)N)C(=O)N[C@@H](CCCNC(N)=O)C(=O)N2
B10: Example 28 (peptide)
peptide: cyclo(YR[Cit]FRVPRR[2Nal]FY[Cit]K[dP]P)
SMILES: CC(C)[C@@H]1NC(=O)[C@H](CCCNC(=N)N)NC(=O)[C@H](Cc2ccccc2)NC(=O)[C@H](CCCNC(N)=O)NC(=O)[C@H](CCCNC(=N)N)NC(=O)[C@H](Cc2ccc(O)cc2)NC(=O)[C@@H]2CCCN2C(=O)[C@H]2CCCN2C(=O)[C@H](CCCCN)NC(=O)[C@H](CCCNC(N)=O)NC(=O)[C@H](Cc2ccc(O)cc2)NC(=O)[C@H](Cc2ccccc2)NC(=O)[C@H](Cc2ccc3ccccc3c2)NC(=O)[C@H](CCCNC(=N)N)NC(=O)[C@H](CCCNC(=N)N)NC(=O)[C@@H]2CCCN2C1=O
B11: Example 52 (peptide)
peptide: cyclo(YR[Cit]CRGGRR[2Nal]CY[Cit]K[dP]P)
modifications: disulfide 4-11
SMILES: N=C(N)NCCC[C@@H]1NC(=O)CNC(=O)CNC(=O)[C@H](CCCNC(=N)N)NC(=O)[C@@H]2CSSC[C@H](NC(=O)[C@H](Cc3ccc4ccccc4c3)NC(=O)[C@H](CCCNC(=N)N)NC1=O)C(=O)N[C@@H](Cc1ccc(O)cc1)C(=O)N[C@@H](CCCNC(N)=O)C(=O)N[C@@H](CCCCN)C(=O)N1CCC[C@@H]1C(=O)N1CCC[C@H]1C(=O)N[C@@H](Cc1ccc(O)cc1)C(=O)N[C@@H](CCCNC(=N)N)C(=O)N[C@@H](CCCNC(N)=O)C(=O)N2
B12: Example 2 (peptide)
peptide: cyclo(YR[Cit]VR[dR]R[2Nal]VY[Cit]K[dP]P)
SMILES: CC(C)[C@@H]1NC(=O)[C@H](Cc2ccc3ccccc3c2)NC(=O)[C@H](CCCNC(=N)N)NC(=O)[C@@H](CCCNC(=N)N)NC(=O)[C@H](CCCNC(=N)N)NC(=O)[C@H](C(C)C)NC(=O)[C@H](CCCNC(N)=O)NC(=O)[C@H](CCCNC(=N)N)NC(=O)[C@H](Cc2ccc(O)cc2)NC(=O)[C@@H]2CCCN2C(=O)[C@H]2CCCN2C(=O)[C@H](CCCCN)NC(=O)[C@H](CCCNC(N)=O)NC(=O)[C@H](Cc2ccc(O)cc2)NC1=O
B13: Example 158 (peptide)
peptide: RRWCYQKGYXPYGYRXCRGP
modifications: D-Pro at P10; Cit at P16; disulfide Cys P4-Cys P17; backbone-cyclic via template Gly-LPro

These binders were tested against human CXCR4 (human, UniProt P61073 1-352) (assay: cell-based or functional assay).
human CXCR4, sequence (P61073 whole entry): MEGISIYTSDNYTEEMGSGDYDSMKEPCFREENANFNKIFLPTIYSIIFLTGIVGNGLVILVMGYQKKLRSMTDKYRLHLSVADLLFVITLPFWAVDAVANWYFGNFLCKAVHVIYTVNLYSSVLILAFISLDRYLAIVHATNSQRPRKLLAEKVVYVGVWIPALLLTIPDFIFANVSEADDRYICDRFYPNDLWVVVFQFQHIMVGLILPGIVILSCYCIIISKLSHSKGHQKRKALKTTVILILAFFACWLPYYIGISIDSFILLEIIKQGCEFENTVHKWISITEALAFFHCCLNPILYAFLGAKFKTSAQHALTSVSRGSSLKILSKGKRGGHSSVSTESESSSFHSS

In order of falling “IC50 (nM) Ca2+ assay (method 2)” value:
1. B13  250 nM
2. RRYCYQKGYXPYGYRTCRGP (D-Pro at P10; disulfide Cys P4-Cys P17; backbone-cyclic via template Gly-LPro) [Example 159]  118 nM
3. RRWCYQKGYKGYGYRXCRGX (Cit at P16; disulfide Cys P4-Cys P17; backbone-cyclic via template Gly-DPro) [Example 156]  49 nM
4. B2  21.9 nM
5. RRWCYQKGYXGYGYRXCRGX (Cit at P16; disulfide Cys P4-Cys P17; backbone-cyclic via template Gly-DPro) [Example 157]  11.3 nM
6. cyclo(RR[2Nal]CY[Cit]KCYKGYCYR[Cit]CRG[dP]) (disulfide 8-13, 4-17) [Example 154]  9.3 nM
7. B8  6.9 nM
8. B1  4.2 nM
9. B3  4.2 nM
10. cyclo([Pip′]RYCYQK[dP]PYR[Cit]CRG[dP]) (disulfide 4-13) [Example 150]  1.4 nM
11. B9  1 nM
12. cyclo(RRWCYQKCYKGYCYR[Cit]CRG[dP]) (disulfide 8-13, 4-17) [Example 155]  0.46 nM
13. cyclo(RRWCYRKCYKGYCYRKCRG[dP]) (disulfide 8-13, 4-17) [Example 160]  0.38 nM

In order of rising “IC50 (nM) Ca2+ assay (method 1)” value:
1. B11  3.1 nM
2. B4  57.8 nM
3. B5  720 nM
4. B7  760 nM
5. B6  1470 nM
6. B10  2680 nM
7. B12  2830 nM

For B11, the “IC50 (µM) Cell migration assay” value was 2.75 µM.
